Assay results from PMC7192616.
Residue numbers refer to the chain shown, from its start.

Key:
Assay in all cases: ITC
[1] = molecular target: T1, mRBM20(513-621) V537I (Mus musculus, UniProt Q3UQS8 513-621, V537I)
T1 sequence: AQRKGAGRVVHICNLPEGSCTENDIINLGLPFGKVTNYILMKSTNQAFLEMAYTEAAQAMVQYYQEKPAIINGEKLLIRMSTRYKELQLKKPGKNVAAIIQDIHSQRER

[2] = molecular target: T2, mRBM20(513-621) N526A (Mus musculus, UniProt Q3UQS8 513-621, N526A)
T2 sequence: T1 sequence with N14A, I25V

[3] = molecular target: T3, mRBM20(513-621) R595M (Mus musculus, UniProt Q3UQS8 513-621, R595M)
T3 sequence: T1 sequence with I25V, R83M

[4] = molecular target: T4, mRBM20(513-621) Q577A (Mus musculus, UniProt Q3UQS8 513-621, Q577A)
T4 sequence: T1 sequence with I25V, Q65A

[5] = molecular target: T5, mRBM20(513-621) Q558A (Mus musculus, UniProt Q3UQS8 513-621, Q558A)
T5 sequence: T1 sequence with I25V, Q46A

[6] = molecular target: T6, mRBM20(513-621) (Mus musculus, UniProt Q3UQS8 513-621)
T6 sequence: T1 sequence with I25V

[7] = molecular target: T7, mRBM20(513-621) R591M (Mus musculus, UniProt Q3UQS8 513-621, R591M)
T7 sequence: T1 sequence with I25V, R79M

[8] = molecular target: T8, mRBM20(513-621) H523A (Mus musculus, UniProt Q3UQS8 513-621, H523A)
T8 sequence: T1 sequence with H11A, I25V

[9] = molecular target: T9, mRBM20(513-621) F560A (Mus musculus, UniProt Q3UQS8 513-621, F560A)
T9 sequence: T1 sequence with I25V, F48A

[10] = molecular target: T10, mRBM20(513-649) +RS (Mus musculus, UniProt Q3UQS8 513-649)
T10 sequence: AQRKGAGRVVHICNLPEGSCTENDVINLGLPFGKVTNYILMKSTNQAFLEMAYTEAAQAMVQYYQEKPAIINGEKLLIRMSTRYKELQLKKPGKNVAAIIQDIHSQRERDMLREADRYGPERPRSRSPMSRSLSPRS

[11] = molecular target: T11, mRBM20(513-621) Y596A (Mus musculus, UniProt Q3UQS8 513-621, Y596A)
T11 sequence: T1 sequence with I25V, Y84A

[12] = molecular target: T12, mRBM20(513-609) delta-alpha3 (Mus musculus, UniProt Q3UQS8 513-609)
T12 sequence: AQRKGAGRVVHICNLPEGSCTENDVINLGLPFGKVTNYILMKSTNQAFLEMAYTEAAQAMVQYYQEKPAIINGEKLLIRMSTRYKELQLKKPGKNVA

AUCUUA (ssRNA)
Kd [1]: 10.3 ± 0.7 µM
Kd [2]: 9 ± 1 µM
Kd [3]: 29.3 ± 0.3 µM
Kd [4]: 6.6 ± 0.8 µM
Kd [5]: 3.4 ± 0.7 µM
Kd [6]: 5.7 ± 0.2 µM
Kd [7]: 12.4 ± 0.6 µM
Kd [8]: 67 ± 12 µM
Kd [9]: 156 ± 6 µM
Kd [10]: 4.3 ± 0.4 µM
Kd [11]: 74 ± 13 µM
Kd [12]: 43 ± 1 µM

GUCUUA (ssRNA)
Kd [6]: 4 ± 0.1 µM

GGGACCUGGUCUUUCCAGGUCCC (structured_RNA) [vIRES-SL]
Kd [6]: 8 ± 1 µM

ACCUUA (ssRNA)
Kd [6]: 13 ± 2 µM

AUUUUA (ssRNA)
Kd [6]: 140 ± 30 µM

AUCCUA (ssRNA)
Kd [6]: 210 ± 3 µM

AUCUCA (ssRNA)
Kd [6]: 95 ± 1 µM

AUCUUG (ssRNA)
Kd [6]: 4.8 ± 0.1 µM
